From the supplement of paper PMC10724198 come the findings set out here.

Data set [1] deals with Saccharomyces cerevisiae. Kind of data set: protein stability index of tFT-peptide fusion in wild type (PSI (0-1 scale)); higher = more stable (slower turnover). The following applies: genetic background: wild type.
Data set [2] deals with Saccharomyces cerevisiae. Kind of data set: protein stability index of tFT-peptide fusion in deletion strain of DOA10 (PSI (0-1 scale)); higher = more stable (slower turnover). The procedure: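 MPS profiling in S. cerevisiae of two library types built from selected 12-aa C-degron peptides (IN1, IN2, LN1, LN3, VN2, R1-R5, W1-W3, Atg1 and Rpa12 C-termini): saturation mutagenesis libraries and C-terminal +1 capping libraries (13 aa). Each peptide is fused to the C-terminus of a sfGFP-mCherry timer, after a GGGS linker. Cells are FACS-sorted into 8 mCherry/sfGFP bins and sequenced. PSI runs from 0 (unstable) to 1 (stable), measured once in wild type and in the das1Δ or doa10Δ background.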
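Throughout, for protein stability index of tFT-peptide fusion in deletion strain of DOA10: PSI per variant is the weighted mean of its sequencing read distribution over the sorted stability bins, counting only variants with over 10 reads summed across bins.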
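Throughout, for protein stability index of tFT-peptide fusion in wild type: PSI derived as read-weighted mean over the 8 sorting bins, only variants exceeding 10 total reads kept, mCherry placed adjacent to the peptide and sfGFP distal.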

With GLYWCSVGCWFR, the protein stability index in data set [1] is 0.246; in data set [2] it was 0.646.

In the case of GPYMCSVGCWFR, the protein stability index worked out at 0.413 in data set [1] and 0.667 in data set [2].

As to GTYMCSVGCWFR, the figures for the protein stability index in data set [1] and in data set [2] were 0.344 and 0.675, respectively.

Turning to HITLPMCPLLLR, the protein stability index in data set [1] is 0.332; in data set [2], 0.657.

Turning to NSLRVLLPLYFR, the protein stability index in data set [1] was 0.357; in data set [2] it was 0.662.

RCLRVLLPLYFR: the figures for the protein stability index in data set [1] and in data set [2] were 0.257 and 0.647, respectively.

As for RELRVLLPLYFR, the protein stability index in data set [1] came to 0.19; in data set [2], 0.684.

In the case of RHTRLDAIYFRI, the protein stability index in data set [1] amounted to 0.517; in data set [2], 0.679.

Take RKLRVLLPLYFR: the protein stability index in data set [1] was 0.282; in data set [2], 0.668.

On to RSDRVLLPLYFR, for which the protein stability index in data set [1] was 0.352; in data set [2] it was 0.696.

In the case of RSLCVLLPLYFR, the protein stability index was found to be 0.247 in data set [1] and 0.616 in data set [2].

For RSLHVLLPLYFR, the protein stability index came to 0.273 in data set [1] and 0.634 in data set [2].

In the case of RSLIVLLPLYFR, the protein stability index in data set [1] turned out to be 0.288; in data set [2], 0.597.

For the sequence RSLRALLPLYFR, the protein stability index in data set [1] worked out at 0.491; in data set [2], 0.684.

Turning to RSLRQLLPLYFR, the protein stability index in data set [1] was 0.466; in data set [2] it was 0.68.

Turning to RSLRTLLPLYFR, the protein stability index was found to be 0.455 in data set [1] and 0.686 in data set [2].

Regarding RSLRVFLPLYFR, the protein stability index was determined as 0.127 in data set [1] and 0.693 in data set [2].

Consider RSLRVLLALYFR, for which the protein stability index in data set [1] stood at 0.287; in data set [2], 0.552.

Turning to RSLRVLLGLYFR, the protein stability index in data set [1] turned out to be 0.392; in data set [2] it was 0.662.

In the case of RSLRVLLPCYFR, the protein stability index in data set [1] was determined as 0.409; in data set [2], 0.647.

As for RSLRVLLPKYFR, the protein stability index in data set [1] came out at 0.646; in data set [2], 0.676.

For RSLRVLLPLGFR, the protein stability index in data set [1] was 0.482; in data set [2] it was 0.682.

RSLRVLLPLQFR: the values for the protein stability index in data set [1] and in data set [2] were 0.472 and 0.635, respectively.

As to RSLRVLLPLVFR, the protein stability index in data set [1] worked out at 0.356; in data set [2], 0.676.

As for RSLRVLLPLYFG, the protein stability index in data set [1] is 0.452; in data set [2], 0.591.

On to RSLRVLLPLYFRS, for which the protein stability index in data set [1] is 0.3; in data set [2], 0.644.

Consider RSLRVLLPLYMR, for which the protein stability index in data set [1] came to 0.326; in data set [2], 0.696.

On to RSLRVLQPLYFR, for which the protein stability index was found to be 0.285 in data set [1] and 0.685 in data set [2].

For RSLTVLLPLYFR, the protein stability index in data set [1] is 0.24; in data set [2], 0.662.

With RVARLDAIYFRI, the values for the protein stability index in data set [1] and in data set [2] were 0.449 and 0.663, respectively.

Consider RVFRLDAIYFRI, for which the protein stability index was 0.319 in data set [1] and 0.619 in data set [2].

As for RVTALDAIYFRI, the results for the protein stability index in data set [1] and in data set [2] were 0.558 and 0.69, respectively.

Turning to RVTRFDAIYFRI, the figures for the protein stability index in data set [1] and in data set [2] were 0.287 and 0.645, respectively.

Turning to RVTRLDAIHFRI, the values for the protein stability index in data set [1] and in data set [2] were 0.66 and 0.7, respectively.

As to RVTRLDAIVFRI, the protein stability index came to 0.534 in data set [1] and 0.693 in data set [2].

For RVTRLDAIYCRI, the protein stability index is 0.621 in data set [1] and 0.696 in data set [2].

Regarding RVTRLDAIYFRC, the protein stability index was 0.431 in data set [1] and 0.66 in data set [2].

Regarding RVTRLDAIYFRD, the protein stability index in data set [1] turned out to be 0.688; in data set [2] it was 0.72.

For RVTRLDAIYFRIC, the protein stability index came out at 0.0626 in data set [1] and 0.103 in data set [2].

RVTRLDAIYFRIE: the protein stability index in data set [1] stood at 0.627; in data set [2], 0.689.

On to RVTRLDAIYFRIM, for which the protein stability index was 0.0601 in data set [1] and 0.129 in data set [2].

Turning to RVTRLDAIYFRIN, the protein stability index in data set [1] came to 0.0776; in data set [2], 0.125.

Regarding RVTRLDAIYFRM, the values for the protein stability index in data set [1] and in data set [2] were 0.422 and 0.674, respectively.

RVTRLDAIYFRR: the protein stability index in data set [1] was found to be 0.653; in data set [2], 0.708.

In the case of RVTRLDASYFRI, the protein stability index in data set [1] stood at 0.676; in data set [2], 0.715.

With RVTRLDCIYFRI, the protein stability index in data set [1] turned out to be 0.367; in data set [2] it was 0.647.

With RVTRLDGIYFRI, the protein stability index in data set [1] was 0.389; in data set [2] it was 0.567.

On to RVTRLDHIYFRI, for which the protein stability index in data set [1] stood at 0.281; in data set [2], 0.717.

RVTRLDSIYFRI: the protein stability index was 0.46 in data set [1] and 0.703 in data set [2].

As to RVTRLDVIYFRI, the figures for the protein stability index in data set [1] and in data set [2] were 0.3 and 0.649, respectively.

Regarding RVTRLFAIYFRI, the protein stability index turned out to be 0.177 in data set [1] and 0.409 in data set [2].

For the sequence RVTRNDAIYFRI, the protein stability index in data set [1] was 0.552; in data set [2], 0.694.

On to RVTRTDAIYFRI, for which the protein stability index is 0.499 in data set [1] and 0.704 in data set [2].

RVTRWDAIYFRI: the values for the protein stability index in data set [1] and in data set [2] were 0.165 and 0.368, respectively.

Take RVTRYDAIYFRI: the protein stability index in data set [1] worked out at 0.332; in data set [2], 0.603.

As for SVTRLDAIYFRI, the protein stability index in data set [1] was found to be 0.363; in data set [2], 0.716.

On to VSLRVLLPLYFR, for which the protein stability index is 0.283 in data set [1] and 0.611 in data set [2].

Take WSLRVLLPLYFR: the protein stability index was 0.269 in data set [1] and 0.636 in data set [2].

For WVTRLDAIYFRI, the figures for the protein stability index in data set [1] and in data set [2] were 0.161 and 0.62, respectively.
